Assay results published in PMC4664897, “Neurodegenerative disease-associated mutants of a human mitochondrial aminoacyl-tRNA synthetase present individual molecular signatures” (Scientific Reports, 2015).
Changes are numbered by the printed parent chain. In names and notes the source's numbering stands.

B1: wild-type human mitochondrial aspartyl-tRNA synthetase (mt-AspRS) (enzyme)
chain: IPEFSSFVVRTNTCGELRSSHLGQEVTLCGWIQYRRQNTFLVLRDFDGLVQVIIPQDESAASVKKILCEAPVESVVQVSGTVISRPAGQENPKMPTGEIEIKVKTAELLNACKKLPFEIKNFVKKTEALRLQYRYLDLRSFQMQYNLRLRSQMVMKMREYLCNLHGFVDIETPTLFKRTPGGAKEFLVPSREPGKFYSLPQSPQQFKQLLMVGGLDRYFQVARCYRDEGSRPDRQPEFTQIDIEMSFVDQTGIQSLIEGLLQYSWPNDKDPVVVPFPTMTFAEVLATYGTDKPDTRFGMKIIDISDVFRNTEIGFLQDALSKPHGTVKAICIPEGAKYLKRKDIESIRNFAADHFNQEILPVFLNANRNWNSPVANFIMESQRLELIRLMETQEEDVVLLTAGEHNKACSLLGKLRLECADLLETRGVVLRDPTLFSFLWVVDFPLFLPKEENPRELESAHHPFTAPHPSDIHLLYTEPKKARSQHYDLVLNGNEIGGGSIRIHNAELQRYILATLLKEDVKMLSHLLQALDYGAPPHGGIALGLDRLICLVTGSPSIRDVIAFPKSFRGHDLMSNTPDSVPPEELKPYHIRVSKPTDSKAERAHVMYLE
notes: human mitochondrial aspartyl-tRNA synthetase (DARS2), residues 41-645; linker of 5 residues before the C-terminal 6-His tag; Homodimer; also called WT; WT mt-AspRS; not shown: His6, C-terminal, kept
B2: human mt-AspRS mutant R58G (enzyme)
chain: B1 chain with R18G
notes: human mitochondrial aspartyl-tRNA synthetase (DARS2), residues 41-645, LBSL patient mutation 172C>G (R58G); linker of 5 residues before the C-terminal 6-His tag; Mutation found in LBSL patients; not shown: His6, C-terminal, kept
B3: human mt-AspRS mutant L613F (enzyme)
chain: B1 chain with L573F
notes: human mitochondrial aspartyl-tRNA synthetase (DARS2), residues 41-645, LBSL patient mutation 1837C>T (L613F); linker of 5 residues before the C-terminal 6-His tag; Mutation found in LBSL patients; not shown: His6, C-terminal, kept
B4: human mt-AspRS mutant T136S (enzyme)
chain: B1 chain with T96S
notes: human mitochondrial aspartyl-tRNA synthetase (DARS2), residues 41-645, LBSL patient mutation 406A>T (T136S); linker of 5 residues before the C-terminal 6-His tag; Mutation found in LBSL patients; not shown: His6, C-terminal, kept
B5: human mt-AspRS mutant L626Q (enzyme)
chain: B1 chain with L586Q
notes: human mitochondrial aspartyl-tRNA synthetase (DARS2), residues 41-645, LBSL patient mutation 1876T>A (printed as 626Q in the methods, L626Q elsewhere); linker of 5 residues before the C-terminal 6-His tag; Mutation found in LBSL patients; not shown: His6, C-terminal, kept

Legend:
[1] = target: the molecule itself; assay: SEC + other: SAXS; HPLC-SEC (Agilent Bio SEC-3, 15 °C) directly upstream of the SAXS cell; WT, Q184K and R263Q loaded at 7.4, 10 and 14 mg/ml; mobile phase 100 mM HEPES-Na pH 7.5, 250 mM NaCl, 5% glycerol, 1 mM TCEP; oligomer from Rg and Porod volume of each peak
[2] = target: the molecule itself; assay: dynamic light scattering; 2 mg/ml in 100 mM potassium phosphate pH 7.5, 50 mM KCl, 0.1 mM EDTA, 10 mM β-mercaptoethanol, 10% glycerol, 20 °C; hydrodynamic diameter

Protein	stoichiometry N [1]	stoichiometry N [2]
B1	2	–
B2	–	2
B3	–	2
B4	–	2
B5	–	2
